# In US20210393713A1 (published 2021):
# Target: AAV-PHP.B capsid (AAV9 variant with the […] insert)
# Assay: SPR
binder,measurement,value
"LY6A as used in SPR (immobilized on the sensor chip, or monomeric in solution) (receptor) LECYQCYGVPFETSCPSITCPYPDGVCVTQEAAVIVDSQTRKVKNNLCLPICPPNIESMEILGTKVNVKTSCCQEDLCNVAVPNG",Kd,0.119 nM
